B1: truncated human ZIP4 (without ECD) tagged with eGFP (truncated hZIP4/eGFP) (domain or fragment, UniProt Q6P5W5 328-647, looked up)
chain: LYGSLATLLICLCAVFGLLLLTCTGCRGVTHYILQTFLSLAVGAVTGDAVLHLTPKVLGLHTHSEEGLSPQPTWRLLAMLAGLYAFFLFENLFNLLLPRDPEDLEDGPCGHSSHSHGGHSHGVSLQLAPSELRQPKPPHEGSRADLVAEESPELLNPEPRRLSPELRLLPYMITLGDAVHNFADGLAVGAAFASSWKTGLATSLAVFCHELPHELGDFAALLHAGLSVRQALLLNLASALTAFAGLYVALAVGVSEESEAWILAVATGLFLYVALCDMLPAMLKVRDPRPWLLFLLHNVGLLGGWTVLLLLSLYEDDITF
notes: human ZIP4 zinc transporter without the N-terminal extracellular domain (residues 1-327 removed); the eight transmembrane domains, residues 328-647; also called eGFP-tagged truncated ZIP4; hZIP4 lacking the ECD; source: HEK293 cells (HEK293T, ATCC CRL-3216), transiently transfected with 50 ng pcDNA3.1 plasmid, measured in living cells; not shown: eGFP (monomeric, A206K), C-terminal, kept
B2: full-length human ZIP4 tagged with eGFP (hZIP4/eGFP) (natural protein, UniProt Q6P5W5 23-647, looked up)
chain: SPPAGLLSLLTSGQGALDQEALGGLLNTLADRVHCANGPCGKCLSVEDALGLGEPEGSGLPPGPVLEARYVARLSAAAVLYLSNPEGTCEDARAGLWASHADHLLALLESPKALTPGLSWLLQRMQARAAGQTPKMACVDIPQLLEEAVGAGAPGSAGGVLAALLDHVRSGSCFHALPSPQYFVDFVFQQHSSEVPMTLAELSALMQRLGVGREAHSDHSHRHRGASSRDPVPLISSSNSSSVWDTVCLSARDVMAAYGLSEQAGVTPEAWAQLSPALLQQQLSGACTSQSRPPVQDQLSQSERYLYGSLATLLICLCAVFGLLLLTCTGCRGVTHYILQTFLSLAVGAVTGDAVLHLTPKVLGLHTHSEEGLSPQPTWRLLAMLAGLYAFFLFENLFNLLLPRDPEDLEDGPCGHSSHSHGGHSHGVSLQLAPSELRQPKPPHEGSRADLVAEESPELLNPEPRRLSPELRLLPYMITLGDAVHNFADGLAVGAAFASSWKTGLATSLAVFCHELPHELGDFAALLHAGLSVRQALLLNLASALTAFAGLYVALAVGVSEESEAWILAVATGLFLYVALCDMLPAMLKVRDPRPWLLFLLHNVGLLGGWTVLLLLSLYEDDITF
notes: human ZIP4 zinc transporter, full-length gene, residues 1-647; also called full-length hZIP4/eGFP; full-hZIP4/eGFP; source: HEK293 cells (HEK293T, ATCC CRL-3216), transiently transfected with 50 ng pcDNA3.1 plasmid, measured in living cells; not shown: eGFP (monomeric, A206K), C-terminal, kept

Target: the molecule itself
Test: fluorescence correlation spectroscopy (FCS) with molecular brightness analysis; living transfected HEK293 cells, upper plasma membrane centred in the confocal volume; 23 °C, HEPES-buffered MEM without phenol red; 100 s (10 x 10 s); brightness compared with CD-86/eGFP (monomer) and CD-86/eGFP/eGFP (tandem, dimer) controls

Protein	stoichiometry N
B1	2
B2	2
